To fix the notation:
B1: ZNF232 (parent)
chain: FPKSEQVYLHFLSVVTEDGPEPKD

Data on 94 variants can be found in the supplement of paper PMC10567573.
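Further: lentivirally expressed fusions sorted by FACS into six bins by GFP to DsRed ratio, PSI derived from sequencing read proportions per bin multiplied by bin number.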

Variants of B1 are the subject of the data set. The data set is described as follows: protein stability index of a GFP-peptide fusion (GPS, HEK-293T) (PSI 1-6); higher = more stable. The following applies: c terminus: a fixed tail appended.
Take FPKSEQVYLHFLSVVTEDGGEPKD: the protein stability index was 2.5.

FPKSEQVYLHFLSVVTEDGDEPKD: the protein stability index turned out to be 2.53.

For FPKSEQVYLHFLSVVTEDGAEPKD, the protein stability index is 3.42.

For FPKSEQVYLHFLSVVTEDGTEPKD, the protein stability index stood at 2.72.

For the variant FPKSEQVYLHFLSVVTEDGREPKD, the protein stability index was determined as 2.15.

As to FPKSEQVYLHFLSVVTEDGFEPKD, the protein stability index amounted to 1.44.

Consider FPKSEQVYLHFLSVVTEDGKEPKD, for which the protein stability index was 2.47.

Take FPKSEQVYLHFLSVVTEDGIEPKD: the protein stability index turned out to be 2.25.

FPKSEQVYLHFLSVVTEDGHEPKD: the protein stability index was 2.28.

For FPKSEQVYLHFLSVVTEDGVEPKD, the protein stability index was 1.76.

FPKSEQVYLHFLSVVTEDGLEPKD: the protein stability index stood at 1.71.

In the case of FPKSEQVYLHFLSVVTEDGCEPKD, the protein stability index was found to be 1.93.

As to FPKSEQVYLHFLSVVTEDGMEPKD, the protein stability index turned out to be 2.11.

Take FPKSEQVYLHFLSVVTEDGPERKD: the protein stability index worked out at 1.9.

On to FPKSEQVYLHFLSVVTEDGPEAKD, for which the protein stability index came out at 1.85.

FPKSEQVYLHFLSVVTEDGPECKD: the protein stability index came to 1.34.

In the case of FPKSEQVYLHFLSVVTEDGPEKKD, the protein stability index turned out to be 1.67.

On to FPKSEQVYLHFLSVVTEDGPEIKD, for which the protein stability index was found to be 2.

Regarding FPKSEQVYLHFLSVVTEDGPESKD, the protein stability index came out at 1.81.

FPKSEQVYLHFLSVVTEDGPEEKD: the protein stability index was 1.94.

Take FPKSEQVYLHFLSVVTEDGPENKD: the protein stability index worked out at 2.37.

Take FPKSEQVYLHFLSVVTEDGPETKD: the protein stability index was 2.

Take FPKSEQVYLHFLSVVTEDGPEHKD: the protein stability index amounted to 2.39.

Consider FPKSEQVYLHFLSVVTEDGPEWKD, for which the protein stability index is 1.83.

On to FPKSEQVYLHFLSVVTEDGPELKD, for which the protein stability index is 2.63.

As for FPKSEQVYLHFLSVVTEDGPEFKD, the protein stability index was 1.67.

Regarding FPKSEQVYLHFLSVVTEDGPEDKD, the protein stability index was 3.31.

Consider FPKSEQVYLHFLSVVTEDGPEQKD, for which the protein stability index was 1.75.

Regarding FPKSEQVYLHFLSVVTEDGPEGKD, the protein stability index is 1.75.

As for FPKSEQVYLHFLSVVTEDGPEYKD, the protein stability index was 1.25.

On to FPKSEQVYLHFLSVPTEDGPEPKD, for which the protein stability index is 2.08.

As to FPKSEQVYLHFLSVTTEDGPEPKD, the protein stability index was found to be 2.1.

Consider FPKSEQVYLHFLSVKTEDGPEPKD, for which the protein stability index turned out to be 2.27.

FPKSEQVYLHFLSVRTEDGPEPKD: the protein stability index stood at 3.32.

FPKSEQVYLHFLSVNTEDGPEPKD: the protein stability index was 2.36.

Take FPKSEQVYLHFLSVITEDGPEPKD: the protein stability index stood at 1.89.

With FPKSEQVYLHFLSVHTEDGPEPKD, the protein stability index came out at 2.4.

FPKSEQVYLHFLSVMTEDGPEPKD: the protein stability index came out at 2.88.

Take FPKSEQVYLHFLSVSTEDGPEPKD: the protein stability index amounted to 2.47.

Regarding FPKSEQVYLHFLSVWTEDGPEPKD, the protein stability index was determined as 1.47.

On to FPKSEQVYLHFLSVYTEDGPEPKD, for which the protein stability index is 2.43.

With FPKSEQVYLHFLSVVTEDWPEPKD, the protein stability index was 1.47.

Consider FPKSEQVYLHFLSVVTEDYPEPKD, for which the protein stability index turned out to be 1.33.

Consider FPKSEQVYLHFLSVVTEDMPEPKD, for which the protein stability index is 2.05.

As to FPKSEQVYLHFLSVVTEDHPEPKD, the protein stability index was found to be 2.32.

As to FPKSEQVYLHFLSVVTEDRPEPKD, the protein stability index worked out at 2.45.

FPKSEQVYLHFLSVVTEDAPEPKD: the protein stability index came out at 2.33.

For the variant FPKSEQVYLHFLSVVTEDQPEPKD, the protein stability index came out at 2.49.

In the case of FPKSEQVYLHFLSVVTEDTPEPKD, the protein stability index is 2.34.

Regarding FPKSEQVYLHFLSVVTEDFPEPKD, the protein stability index is 1.54.

On to FPKSEQVYLHFLSVVTEDCPEPKD, for which the protein stability index amounted to 1.95.

On to FPKSEQVYLHFLSVVTEDPPEPKD, for which the protein stability index was found to be 2.21.

As to FPKSEQVYLHFLSVVTEDSPEPKD, the protein stability index came to 2.27.

Regarding FPKSEQVYLHFLSVVTEDEPEPKD, the protein stability index was found to be 2.43.

Take FPKSEQVYLHFLSVVTEDIPEPKD: the protein stability index is 1.9.

Consider FPKSEQVYLHFLSVVTEDLPEPKD, for which the protein stability index was determined as 1.93.

FPKSEQVYLHFLSVVTEDKPEPKD: the protein stability index was found to be 2.71.

As for FPKSEQVYLHFLSVVTEDNPEPKD, the protein stability index is 2.69.

Turning to FPKSEQVYLHFLSVVTEDVPEPKD, the protein stability index is 1.5.

For the variant FPKSEQVYLHFLSVVTEDDPEPKD, the protein stability index was determined as 2.06.

As to FPKSEQVYLHFLSVVTIDGPEPKD, the protein stability index was 1.77.

Regarding FPKSEQVYLHFLSVVTQDGPEPKD, the protein stability index was 1.8.

As to FPKSEQVYLHFLSVVTSDGPEPKD, the protein stability index came out at 1.65.

As for FPKSEQVYLHFLSVVTPDGPEPKD, the protein stability index is 1.99.

On to FPKSEQVYLHFLSVVTDDGPEPKD, for which the protein stability index stood at 2.62.

On to FPKSEQVYLHFLSVVTNDGPEPKD, for which the protein stability index is 1.66.

With FPKSEQVYLHFLSVVTFDGPEPKD, the protein stability index worked out at 2.38.

In the case of FPKSEQVYLHFLSVVTRDGPEPKD, the protein stability index is 1.88.

Consider FPKSEQVYLHFLSVVTYDGPEPKD, for which the protein stability index worked out at 2.15.

With FPKSEQVYLHFLSVVTADGPEPKD, the protein stability index is 3.57.

As for FPKSEQVYLHFLSVVTMDGPEPKD, the protein stability index came out at 2.51.

For the variant FPKSEQVYLHFLSVVTLDGPEPKD, the protein stability index came to 1.56.

In the case of FPKSEQVYLHFLSVVTTDGPEPKD, the protein stability index stood at 2.08.

Consider FPKSEQVYLHFLSVVTKDGPEPKD, for which the protein stability index amounted to 2.

In the case of FPKSEQVYLHFLSVVTWDGPEPKD, the protein stability index turned out to be 4.03.

On to FPKSEQVYLHFLSVVTEDGPEPAD, for which the protein stability index was found to be 2.66.

In the case of FPKSEQVYLHFLSVVTEDGPEPMD, the protein stability index was 2.22.

With FPKSEQVYLHFLSVVTEDGPEPYD, the protein stability index amounted to 1.39.

With FPKSEQVYLHFLSVVTEDGPEPID, the protein stability index worked out at 2.06.

FPKSEQVYLHFLSVVTEDGPEPDD: the protein stability index turned out to be 1.82.

FPKSEQVYLHFLSVVTEDGPEPTD: the protein stability index stood at 1.69.

Regarding FPKSEQVYLHFLSVVTEDGPEPCD, the protein stability index worked out at 2.07.

With FPKSEQVYLHFLSVVTEDGPEPGD, the protein stability index came to 1.83.

As to FPKSEQVYLHFLSVVTEDGPEPND, the protein stability index was 1.69.

For FPKSEQVYLHFLSVVTEDGPEPHD, the protein stability index is 1.84.

FPKSEQVYLHFLSVVTEDGPEPVD: the protein stability index came to 2.14.

Consider FPKSEQVYLHFLSVVTEDGPEPFD, for which the protein stability index amounted to 1.63.

On to FPKSEQVYLHFLSVVTEDGPEPED, for which the protein stability index stood at 2.13.

For the variant FPKSEQVYLHFLSVVTEDGPEPWD, the protein stability index came out at 1.7.

Regarding FPKSEQVYLHFLSVVTEDGPEPSD, the protein stability index worked out at 1.91.

Turning to FPKSEQVYLHFLSVVTEDGPEPKF, the protein stability index stood at 1.99.

As for FPKSEQVYLHFLSVVTEDGPEPKG, the protein stability index was found to be 3.76.

For FPKSEQVYLHFLSVVTEDGPEPKA, the protein stability index was determined as 1.8.

For FPKSEQVYLHFLSVVTEDGPEPKN, the protein stability index turned out to be 1.82.
